Results on four substances are retold here after article PMC2742357.

A value given as a limit tells only on which side of the number the result lay.

For experiment [1], the target named is smooth muscle myosin (phosphorylated) (Gallus gallus) (UniProt P10587). Conditions: cited from earlier work.
The target in experiment [2] is phosphorylated smooth muscle myosin (pSMM) (Gallus gallus) (UniProt P10587). Conditions: cited from earlier work.
In experiment [3] the target is unphosphorylated smooth muscle myosin (chicken (endogenous in gizzard)) (UniProt P10587). Description: co-sedimentation.
The target in experiment [4] is phosphorylated smooth muscle myosin (chicken (endogenous in gizzard)) (UniProt P10587). Kind of experiment: co-sedimentation.
Experiment [5] has as its target unphosphorylated smooth muscle myosin (chicken (endogenous in gizzard)) (UniProt P10587).
Experiment [6] shares this target. Description: ELISA.

Chain of MLCK (P11799 935-1906): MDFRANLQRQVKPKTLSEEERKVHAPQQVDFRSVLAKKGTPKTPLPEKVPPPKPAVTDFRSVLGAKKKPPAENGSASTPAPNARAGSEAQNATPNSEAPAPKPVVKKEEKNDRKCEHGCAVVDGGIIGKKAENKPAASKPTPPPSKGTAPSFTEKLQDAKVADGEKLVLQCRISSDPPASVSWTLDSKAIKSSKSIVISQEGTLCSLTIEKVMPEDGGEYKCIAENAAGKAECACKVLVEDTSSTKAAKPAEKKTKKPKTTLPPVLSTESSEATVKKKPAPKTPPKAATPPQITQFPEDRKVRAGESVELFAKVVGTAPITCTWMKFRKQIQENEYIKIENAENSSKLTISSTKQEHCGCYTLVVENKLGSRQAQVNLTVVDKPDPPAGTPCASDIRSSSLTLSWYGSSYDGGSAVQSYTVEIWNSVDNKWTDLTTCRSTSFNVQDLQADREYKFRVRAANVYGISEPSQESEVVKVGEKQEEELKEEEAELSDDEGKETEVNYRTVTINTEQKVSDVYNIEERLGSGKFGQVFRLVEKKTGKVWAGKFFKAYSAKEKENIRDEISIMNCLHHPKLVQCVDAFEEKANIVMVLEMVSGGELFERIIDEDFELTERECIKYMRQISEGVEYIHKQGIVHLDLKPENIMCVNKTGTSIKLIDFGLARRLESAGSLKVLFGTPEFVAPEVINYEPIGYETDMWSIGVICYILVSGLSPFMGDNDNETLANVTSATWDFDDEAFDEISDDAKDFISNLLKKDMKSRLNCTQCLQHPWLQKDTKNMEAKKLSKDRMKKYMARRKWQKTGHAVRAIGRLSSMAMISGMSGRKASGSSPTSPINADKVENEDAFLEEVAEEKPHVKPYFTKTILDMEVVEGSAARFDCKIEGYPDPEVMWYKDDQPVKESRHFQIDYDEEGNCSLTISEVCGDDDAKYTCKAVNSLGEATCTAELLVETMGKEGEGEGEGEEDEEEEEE

As for MLCK (from UniProt P11799), in experiment [1], the equilibrium dissociation constant (Kd) was 0.77 µM.

As for “smooth muscle myosin light chain kinase (MLCK) (from UniProt P11799)”, the Kd in experiment [2] was greater than 100 µM.

In experiment [3], “smooth muscle myosin light chain kinase (enzyme)” came in with a Kd of the more weakly bound MLCK pool of 9.5 µM and a percent of MLCK bound to SMM, spin 2 of 75%. This substance also returned a Kd of the more weakly bound MLCK pool in experiment [4] of 23.8 µM.

Consider telokin (natural protein), for which the equilibrium dissociation constant (Kd) in experiment [5] was 5 µM. In addition, the percent of actin displaced from SMM filaments at 50 uM telokin in experiment [3] is 5%. The same substance had a percent of actin displaced from the SMM coverslip at 50 uM telokin in experiment [6] of 9%.
